Measurements: publication PMC7980463 (Proceedings of the National Academy of Sciences of the …, 2021)
Residue numbers refer to the chain shown, from its start.

B1: MsGyrB47, the ATPase (N-terminal) domain of M. smegmatis GyrB (domain or fragment)
chain: MAAQKNNAPKEYGADSITILEGLEAVRKRPGMYIGSTGERGLHHLIWEVVDNAVDEAMAGFATRVDVKIHADGSVEVRDDGRGIPVEMHATGMPTIDVVMTQLHAGGKFDGETYAVSGGLHGVGVSVVNALSTRLEATVLRDGYEWFQYYDRSVPGKLKQGGETKETGTTIRFWADPEIFETTDYNFETVARRLQEMAFLNKGLTIELTDERVTAEEVVDDVVKDTAEAPKTADEKAAEATGPSKVKHRVFHYPGGLVDYVKHINRTKTPIQQSIIDFDGKGPGHEVEIAMQWNAGYSESVHTFANTINTHEGGTHEEGFRAALTSVVNRYAKDKKLLKDKDPNLTGDDIREGLAAVISVKVAEPQFEGQTKTKLGNTEVKSFVQKICNEQLQHWFEANPAEAKTVVNKAVSSAQARIAARKARELV
B2: Mycobacterium smegmatis MfpA (natural protein, M. smegmatis)
chain: MRIGANGDETVWADEEFAGRDFRDEDLSRIRTERVVFTECDFSGVDLSESEHHGSAFRNCTFRRSTIWHSTFTNCSLLGSVFTECRIRPVTFVECDFTLAVLGGCDLRAVDLSDCRLREVSLVGADLRKAVLRRADLTGSRVQDARLEEADLRGTRVDPTFWTTAKVRGAKIDIEQALAYAAAHGLAVHGG

Assays:
crystal structure = biological target: the molecule itself; experiment: crystal structure
MsGyrB47 (D348A) = biological target: T1, MsGyrB47 (D348A) (M. smegmatis, UniProt A0QNE0 1-427, D348A); experiment: cell-based or functional assay
T1 sequence: B1 chain with D348A

Binder	stoichiometry N (crystal structure)	stimulation of the ATPase activity by MsMfpA, compared with wild-type MsGyrB47 (MsGyrB47 (D348A)) [fold decrease]
B1	2	–
B2	–	~2
